Test results published in patent US20030204066A1.

Target: human tumor necrosis factor-α (TNFα) (human) (UniProt P01375)
Assay: cell-based or functional assay

Sequence of human tumor necrosis factor-α (TNFα) (human) (P01375 77-233): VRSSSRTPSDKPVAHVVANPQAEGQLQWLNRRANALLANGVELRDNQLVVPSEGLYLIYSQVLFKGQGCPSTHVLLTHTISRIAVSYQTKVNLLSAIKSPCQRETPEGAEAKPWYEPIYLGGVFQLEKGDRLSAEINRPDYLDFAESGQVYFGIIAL

B1: chimeric mouse/human IgG1 anti-platelet mAb (7E3) (antibody, INN chains, looked up, V domains shown)
VH: EVQLQQSGTVLARPGASVKMSCEASGYTFTNYWMHWVKQRPGQGLEWIGAIYPGNSDTSYIQKFKGKAKLTAVTSTTSVYMELSSLTNEDSAVYYCTLYDGYYVFAYWGQGTLVTVSA
VL: EIVLTQSPVTLSVTPGDSVSLSCRASRDISNNLHWFQQTSHESPRLLIKYASQSMSGIPSRFSGSGSGTDFTLSINSVETEDFGMYFCQQTNSWPYTFGGGTKLEIK
modifications: chimeric IgG1
  IL-6 secreted by FS-4 fibroblasts (ng/ml) at 0.3 ng/ml TNF, 4 µg/ml antibody: 1.6 ng/mL
  IL-6 secreted by FS-4 fibroblasts (ng/ml) at 1.5 ng/ml TNF, 4 µg/ml antibody: 1.96 ng/mL
  IL-6 secreted by FS-4 fibroblasts (ng/ml) at 7.5 ng/ml TNF, 4 µg/ml antibody: 2.16 ng/mL
